The nature of series [1]: Folding and unfolding kinetics (Chevron plot, stopped-flow CD, GuHCl). Format: physicochemical. The following applies: for kf: folding rate constant extrapolated to 0M GuHCl; for kf / ku: global Chevron fit; for ΔΔG‡-D / ΔΔG‡-N: in reference to WT*; for ΔΔG‡-D: positive value = decrease in folding activation barrier; for ΔΔG‡-N: positive value = decrease in unfolding activation barrier; for mf: slope of ln(kf) vs GuHCl; for mu: slope of ln(ku) vs GuHCl; for ku: unfolding rate constant extrapolated to 0M GuHCl. Here is the method: Due to signal-to-noise considerations, relatively high protein concentrations (>100 μM) of FGF-1 were required for kinetic studies monitored by CD. At these concentrations protein precipitation occurred in ADA buffer. Therefore, a different buffering system was chosen for the kinetic studies to permit higher protein concentrations without precipitation. Protein samples were dialyzed against 50 mM sodium phosphate, 100 mM NaCl, 10 mM ammonium sulfate, 2 mM DTT, and typically 2.5, 3.0 or 3.8M GuHCl pH 7.5 overnight at 298K prior to data collection (higher concentrations of GuHCl were required to ensure complete denaturation for some stabilizing mutations).
Protein samples were degassed for 10 minutes prior to analysis. Refolding was initiated by a 1:10 dilution of protein solutions into 50 mM sodium phosphate, 100 mM NaCl, 10 mM ammonium sulfate, 2 mM DTT pH 7.5 containing either 0.1M or 0.05M increments of GuHCl up to the midpoint of denaturation. All data were collected using an Aviv model SF305 stopped flow system. Data collection times for each protein were designed to quantify the CD signal over 5 half-lives, or >96% of the total expected amplitude.
Protein samples (300 μM) were dialyzed against 50 mM sodium phosphate, 100 mM NaCl, 10 mM ammonium sulfate, 2 mM DTT pH 7.50 buffer overnight at 298K, and degassed for 10 min prior to data collection. Unfolding was initiated by 1:10 dilution of the native protein into 50 mM sodium phosphate, 100 mM NaCl, 10 mM ammonium sulfate, 2 mM DTT pH 7.5 buffer with final GuHCl concentration in the range of 1.5 to 5.5M in 0.5M increments. The unfolding process was quantified by following the change in CD signal at 227 nm, and data collection times for each protein were designed so as to monitor the CD signal over 3 to 4 half-lives, or >93% of the total expected amplitude.
Triplicate scans were collected for both folding and unfolding kinetic data at each GuHCl buffer condition. In all cases, data from at least three separate experiments were averaged. The kinetic rates and amplitudes versus denaturant concentration were calculated from the time dependent change in CD signal using a single exponential model: I(t)=Aexp(−kt)+C (3) where I(t) is the intensity of CD signal at time t, A is the corresponding amplitude, k is the observed rate constant for the reaction and C is a constant that is the asymptote of the CD signal. Folding and unfolding rate constant data were fit to a global function describing the contribution of both rate constants to the observed kinetics as a function of denaturant (“Chevron” plot): In(kobs)=In(kf0exp(mkfD)+ku0exp(mkuD)) (5) where kf0 and ku0 are the folding and unfolding rate constants, respectively, extrapolated to 0M denaturant, mkf and mku are the slopes of the linear functions relating In(kf) and In(ku), respectively, to D, the denaturant concentration. Changes in activation barriers upon mutation were calculated using a modified version of transition state theory: ΔΔG‡-D=RTIn(kf Mut/kfWT*) and ΔΔG‡-N=RTIn(ku Mut/kuWT*) (6) where kf Mut, ku Mut, kf WT* and ku WT* are the folding and unfolding rates for mutant and WT*, respectively, in water. ΔΔG‡-D, and ΔΔG‡-N are the changes in the activation barrier for folding and unfolding, respectively, between mutation and WT*. A positive value for ΔΔG‡-D or ‡‡G‡-N indicates a decrease in the associated activation barrier energy. Isothermal Titration Calorimetry.
Due to the relatively weak differential CD signal of native and denatured FGF-1, the folding kinetics study required relatively high protein concentrations (>5 mg/ml). […] Thus, the refolding rate constants were not obtainable below certain denaturant concentrations for these mutants. […] The SYM6Δ120-122 mutant is substantially destabilized relative to the WT* protein (see Table II) and presents a relatively short “folding arm” in the Chevron plot, for this reason there is greater uncertainty associated with the folding kinetics determined for this mutant. […]

Series [2] can be described thus: Heparin Sepharose affinity chromatography / heparin-binding affinity. The source says: All studies herein disclosed utilized a synthetic gene for the 140 amino acid form of human FGF-1 with the addition of an amino-terminal six residue “His-tag” to facilitate purification using nickel nitrilotriacetic acid (Ni-NTA) affinity resin (QIAGEN, Valencia Calif.). The QuikChange® site-directed mutagenesis protocol (Stratagene, La Jolla Calif.) was used to introduce mutations, individually or in combination, using mutagenic oligonucleotides of 25 to 31 bases in length (Biomolecular Analysis Synthesis and Sequencing Laboratory, Florida State University). For deletions involving residues 104-106 and 120-122, mutagenic oligonucleotides were used to delete these positions as well as to simultaneously create point mutations Ala103 ? Gly and Arg119 ? Gly, respectively. […]
All mutant proteins, with the exception of the SYM6 mutant were expressed at levels similar to the WT* protein (i.e. ˜30-100 mg/L). […] Phe, and E280nm (0.1%, 1 cm)=1.31 for all deletion mutations (determined by dithionitrobenzoate titration of cysteine residues).
To quantify the reduced affinity for heparin (a polysulfonated polysaccharide) we determined the affinity for sucrose octasulfate, a structural mimic of a heparin dimer, by isothermal titration calorimetry. […]

The values that follow come from patent publication US7790682B1, “Engineered human acidic fibroblast growth factors and associated methods” (The Florida State University Research Foundation, Inc., priority 2003, dated 2010).

Entries after “also recorded” stand apart in the source; their conditions may differ.

As to “WT*: Wild type (his-tagged) 140 amino acid form of human FGF-1, SEQ ID NO: 4 [reference compound]”, in series [1], the kf is 3.31 s⁻¹, the “ΔΔG‡-D” value stood at 0 kcal/mol, the “ΔΔG‡-N” value is 0 kcal/mol and the mf was -6.05 M⁻¹. Further, in series [1], the mu was 0.47 M⁻¹ and the ku is 0.69 1 × 10^−3 sec^−1.

B1: SYM5/Δ104-106: SYM5 FGF-1 mutant plus Ala103→Gly/ΔGlu104/ΔLys105/ΔAsn106 (protein, UniProt P05230 16-155, looked up, variant L44F L73V V109L L111I C117V A103G del104-106)
Fibroblast growth factor 1: FNLPPGNYKKPKLLYCSNGGHFLRILPDGTVDGTRDRSDQHIQFQLSAESVGEVYIKSTETGQYLAMDTDGLVYGSQTPNEECLFLERLEENHYNTYISKKHGWFLGIKKNGSVKRGPRTHYGQKAILFLPLPVSSD
As for B1, in series [1], the kf was 2.00 s⁻¹, the “ΔΔG‡-D” value was -0.299 kcal/mol, the “ΔΔG‡-N” value is -0.0598 kcal/mol and the mf is -3.70 M⁻¹. Further, in series [1], the mu was determined as 0.95 M⁻¹ and the ku is given as 0.62 1 × 10^−3 sec^−1.

B2: SYM6/ΔΔ: SYM6 FGF-1 mutant plus both Δ104-106 and Δ120-122 deletion mutations, SEQ ID NO: 1 (protein)
chain: FNLPPGNYKKPKLLYCSNGGHFLRILPDGTVDGTRDRSDQHIQFQLSAESVGEVYIKSTETGQYLAIDTDGLVYGSQTPNEECLFLERLEENHYNTYISKKHGWFLGIKKNGSVKGTHYGQKAILFLPLPVSSD
modifications: Human FGF-1 mutant SYM6DD
For B2, the folding behavior entry in series [1] (all denaturant concentrations evaluated) is “single exponential folding behavior”. For the same molecule, in series [1], the kf is 74.0 s⁻¹, the “ΔΔG‡-D” value was 1.84 kcal/mol, the “ΔΔG‡-N” value amounted to 0.602 kcal/mol and the mf was -4.40 M⁻¹. Also, in series [1], the mu amounted to 0.69 M⁻¹ and the ku is given as 1.90 1 × 10^−3 sec^−1. The “heparin-binding affinity (in words)” value in series [2] is on record as “markedly reduced; also recorded: decreased heparin binding affinity”.

B3: SYM5/Δ120-122: SYM5 FGF-1 mutant plus Arg119→Gly/ΔGly120/ΔPro121/ΔArg122, SEQ ID NO: 2 (protein)
chain: FNLPPGNYKKPKLLYCSNGGHFLRILPDGTVDGTRDRSDQHIQFQLSAESVGEVYIKSTETGQYLAMDTDGLVYGSQTPNEECLFLERLEENHYNTYISKKHAEKNWFLGIKKNGSVKGTHYGQKAILFLPLPVSSD
modifications: Human FGF-1 mutant SYM5D120-122
B3: in series [1], the kf is 7.29 s⁻¹, the “ΔΔG‡-D” value worked out at 0.468 kcal/mol, the “ΔΔG‡-N” value was found to be 0.502 kcal/mol and the mf is -6.44 M⁻¹. For the same molecule, in series [1], the mu was determined as 0.80 M⁻¹ and the ku is recorded as 1.60 1 × 10^−3 sec^−1.

B4: SYM5: FGF-1 core mutant Leu44→Phe/Leu73→Val/Val109→Leu/Leu111→Ile/Cys117→Val (protein, UniProt P05230 16-155, looked up, variant L44F L73V V109L L111I C117V)
Fibroblast growth factor 1: FNLPPGNYKKPKLLYCSNGGHFLRILPDGTVDGTRDRSDQHIQFQLSAESVGEVYIKSTETGQYLAMDTDGLVYGSQTPNEECLFLERLEENHYNTYISKKHAEKNWFLGIKKNGSVKRGPRTHYGQKAILFLPLPVSSD
As for B4, in series [1], the kf was 2.57 s⁻¹, the “ΔΔG‡-D” value is -0.151 kcal/mol, the “ΔΔG‡-N” value was -0.6 kcal/mol and the mf was -6.44 M⁻¹. In addition, in series [1], the mu stood at 0.57 M⁻¹ and the ku is 0.25 1 × 10^−3 sec^−1.
